Reference: article PMC7144899

Assays:
[1] = target: AnaRne-GFP (RNase E tagged with GFP at the C-terminus, in situ) (Anabaena PCC 7120) (UniProt Q8YP69); assay: FRET or BRET
[2] = target: His-AnaRneN (N-terminal catalytic domain of Anabaena RNase E) (Anabaena PCC 7120); assay: ITC

Chain of UniProt Q8YP69 (Q8YP69 whole entry, the tested form may be a part): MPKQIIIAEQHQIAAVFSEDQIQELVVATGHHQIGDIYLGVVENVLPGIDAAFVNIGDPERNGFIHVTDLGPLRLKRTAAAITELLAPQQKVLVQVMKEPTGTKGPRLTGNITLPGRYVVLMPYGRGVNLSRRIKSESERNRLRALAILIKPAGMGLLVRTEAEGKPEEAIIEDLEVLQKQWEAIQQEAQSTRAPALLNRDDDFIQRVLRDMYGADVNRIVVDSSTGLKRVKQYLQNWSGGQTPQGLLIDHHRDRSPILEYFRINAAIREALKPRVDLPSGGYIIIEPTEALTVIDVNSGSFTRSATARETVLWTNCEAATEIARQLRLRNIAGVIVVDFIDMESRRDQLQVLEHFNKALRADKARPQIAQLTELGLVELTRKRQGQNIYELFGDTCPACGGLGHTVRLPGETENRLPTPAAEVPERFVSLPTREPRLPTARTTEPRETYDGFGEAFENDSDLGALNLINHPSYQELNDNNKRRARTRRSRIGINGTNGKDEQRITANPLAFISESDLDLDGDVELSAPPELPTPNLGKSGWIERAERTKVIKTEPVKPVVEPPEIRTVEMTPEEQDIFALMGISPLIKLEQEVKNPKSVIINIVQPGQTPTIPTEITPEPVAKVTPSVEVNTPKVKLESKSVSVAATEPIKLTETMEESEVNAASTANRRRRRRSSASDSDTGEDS

FRET efficiency [1] | Kd [2] [nM] | stoichiometry N [2] | Substance
0.7 |  |  | AnaRnb-BFP (RNase II tagged with BFP at the C-terminus, in situ) (enzyme)
 | 2770 | 1 | Alr1240-Strep (Alr1240 with a C-terminal Strep tag fusion) (enzyme)
